Experimental data: US20060263802A1 (CRUCELL HOLLAND B V, published 2006)

Key:
Assay in all cases: PEPSCAN ELISA, looped 15-mer, 10 ug/ml
[1] = target: looped peptide … (rabies virus strain ERA)
[2] = target: looped peptide … (rabies virus strain ERA); remark: listed apart in the source
[3] = target: looped peptide … (rabies virus strain ERA); remark: listed apart in the source
[4] = target: looped peptide … (rabies virus strain ERA); remark: listed apart in the source
[5] = target: looped peptide … (rabies virus strain ERA); remark: listed apart in the source
[6] = target: looped peptide … (rabies virus strain ERA); remark: listed apart in the source
[7] = target: looped peptide … (rabies virus strain ERA); remark: listed apart in the source
[8] = target: looped peptide … (rabies virus strain ERA); remark: listed apart in the source
[9] = target: looped peptide … (rabies virus strain ERA); remark: listed apart in the source
[10] = target: looped peptide … (rabies virus strain ERA); remark: listed apart in the source
[11] = target: looped peptide … (rabies virus strain ERA); remark: listed apart in the source
[12] = target: looped peptide … (rabies virus strain ERA); remark: listed apart in the source
[13] = target: looped peptide … (rabies virus strain ERA); remark: listed apart in the source
[14] = target: looped peptide … (rabies virus strain ERA); remark: listed apart in the source
[15] = target: looped peptide … (rabies virus strain ERA); remark: listed apart in the source
[16] = target: looped peptide … (rabies virus strain ERA); remark: listed apart in the source
[17] = target: looped peptide … (rabies virus strain ERA); remark: listed apart in the source
[18] = target: looped peptide … (rabies virus strain ERA); remark: listed apart in the source
[19] = target: looped peptide … (rabies virus strain ERA); remark: listed apart in the source
[20] = target: looped peptide … (rabies virus strain ERA); remark: listed apart in the source
[21] = target: looped peptide … (rabies virus strain ERA); remark: listed apart in the source
[22] = target: looped peptide … (rabies virus strain ERA); remark: listed apart in the source
[23] = target: looped peptide … (rabies virus strain ERA); remark: listed apart in the source
[24] = target: looped peptide … (rabies virus strain ERA); remark: listed apart in the source
[25] = target: looped peptide … (rabies virus strain ERA); remark: listed apart in the source
[26] = target: looped peptide … (rabies virus strain ERA); remark: listed apart in the source
[27] = target: looped peptide … (rabies virus strain ERA); remark: listed apart in the source
[28] = target: looped peptide … (rabies virus strain ERA); remark: listed apart in the source
[29] = target: looped peptide … (rabies virus strain ERA); remark: listed apart in the source
[30] = target: looped peptide … (rabies virus strain ERA); remark: listed apart in the source
[31] = target: looped peptide … (rabies virus strain ERA); remark: listed apart in the source
[32] = target: looped peptide … (rabies virus strain ERA); remark: listed apart in the source
[33] = target: looped peptide … (rabies virus strain ERA); remark: listed apart in the source
[34] = target: looped peptide … (rabies virus strain ERA); remark: listed apart in the source
[35] = target: looped peptide … (rabies virus strain ERA); remark: listed apart in the source
[36] = target: looped peptide … (rabies virus strain ERA); remark: listed apart in the source
[37] = target: looped peptide … (rabies virus strain ERA); remark: listed apart in the source
[38] = target: looped peptide … (rabies virus strain ERA); remark: listed apart in the source
[39] = target: looped peptide … (rabies virus strain ERA); remark: listed apart in the source
[40] = target: looped peptide … (rabies virus strain ERA); remark: listed apart in the source
[41] = target: looped peptide … (rabies virus strain ERA); remark: listed apart in the source
[42] = target: looped peptide … (rabies virus strain ERA); remark: listed apart in the source
[43] = target: looped peptide … (rabies virus strain ERA); remark: listed apart in the source
[44] = target: looped peptide … (rabies virus strain ERA); remark: listed apart in the source
[45] = target: looped peptide … (rabies virus strain ERA); remark: listed apart in the source
[46] = target: looped peptide … (rabies virus strain ERA); remark: listed apart in the source
[47] = target: looped peptide … (rabies virus strain ERA); remark: listed apart in the source
[48] = target: looped peptide … (rabies virus strain ERA); remark: listed apart in the source
[49] = target: looped peptide … (rabies virus strain ERA); remark: listed apart in the source
[50] = target: looped peptide … (rabies virus strain ERA); remark: listed apart in the source
[51] = target: looped peptide … (rabies virus strain ERA); remark: listed apart in the source
[52] = target: looped peptide … (rabies virus strain ERA); remark: listed apart in the source
[53] = target: looped peptide … (rabies virus strain ERA); remark: listed apart in the source
[54] = target: looped peptide … (rabies virus strain ERA); remark: listed apart in the source
[55] = target: looped peptide … (rabies virus strain ERA); remark: listed apart in the source
[56] = target: looped peptide … (rabies virus strain ERA); remark: listed apart in the source
[57] = target: looped peptide … (rabies virus strain ERA); remark: listed apart in the source
[58] = target: looped peptide … (rabies virus strain ERA); remark: listed apart in the source
[59] = target: looped peptide … (rabies virus strain ERA); remark: listed apart in the source
[60] = target: looped peptide … (rabies virus strain ERA); remark: listed apart in the source
[61] = target: looped peptide … (rabies virus strain ERA); remark: listed apart in the source
[62] = target: looped peptide … (rabies virus strain ERA); remark: listed apart in the source
[63] = target: looped peptide … (rabies virus strain ERA); remark: listed apart in the source
[64] = target: looped peptide … (rabies virus strain ERA); remark: listed apart in the source
[65] = target: looped peptide … (rabies virus strain ERA); remark: listed apart in the source
[66] = target: looped peptide … (rabies virus strain ERA); remark: listed apart in the source
[67] = target: looped peptide … (rabies virus strain ERA); remark: listed apart in the source
[68] = target: looped peptide … (rabies virus strain ERA); remark: listed apart in the source

B1: human monoclonal antibody CRJB (antibody, V domains shown)
VH: QITLKETGPTLVKPTQTLTLTCTFSGFSLSTSGVGVGWIRQPPGKALEWVTLIYWDDDKRYSPSLENRVTIRKDTSKNQVALTMTNMDPLDTGTYYCAHRQHISSFPWFDSWGQGTLVTVSS
VL: SYVLTQPPSVSVAPGKTARINCGGNNIEYRSVHWYQQKSGQAPVAVIYDNSDRPSGIPERFSGSKSGNTATLTISRVEAGDEADYYCQVWDISSDVVFGGGTKLTVLG
Binder B1 has an OD value [1] of 96, an OD value [2] of 66 and an OD value [3] of 82. It also gave an OD value [4] of 87, an OD value [5] of 98 and an OD value [6] of 88. The OD value [7] was 101, the OD value [8] was 89 and the OD value [9] was 104. The OD value [10] was 105, the OD value [11] was 78 and the OD value [12] was 89. The OD value [13] was 73, the OD value [14] was 79 and the OD value [15] was 90. For the same binder, the OD value [16] was 82, the OD value [17] was 75 and the OD value [18] was 82. For the same binder, the OD value [19] was 104, the OD value [20] was 60 and the OD value [21] was 86. The OD value [22] was 68, the OD value [23] was 89 and the OD value [24] was 71. It also gave an OD value [25] of 85, an OD value [26] of 90 and an OD value [27] of 94. It also gave an OD value [28] of 77, an OD value [29] of 72 and an OD value [30] of 71. The OD value [31] was 78, the OD value [32] was 78 and the OD value [33] was 79. For the same binder, the OD value [34] was 75, the OD value [35] was 76 and the OD value [36] was 86. It also gave an OD value [37] of 79, an OD value [38] of 80 and an OD value [39] of 123. It also gave an OD value [40] of 72, an OD value [41] of 96 and an OD value [42] of 97. It also gave an OD value [43] of 79, an OD value [44] of 82 and an OD value [45] of 74. For the same binder, the OD value [46] was 97, the OD value [47] was 48 and the OD value [48] was 104. It also gave an OD value [49] of 91, an OD value [50] of 83 and an OD value [51] of 106. The OD value [52] was 108, the OD value [53] was 99 and the OD value [54] was 72. For the same binder, the OD value [55] was 89, the OD value [56] was 76 and the OD value [57] was 82. For the same binder, the OD value [58] was 57, the OD value [59] was 58 and the OD value [60] was 85. The OD value [61] was 89, the OD value [62] was 34 and the OD value [63] was 66. It also gave an OD value [64] of 58, an OD value [65] of 33 and an OD value [66] of 62. It also gave an OD value [67] of 57 and an OD value [68] of 93.
